Measured values published in IntAct's records for PubMed 16924104.

B1: Polyunsaturated fatty acid 5-lipoxygenase (Homo sapiens), P09917 (parent)
chain: MPSYTVTVATGSQWFAGTDDYIYLSLVGSAGCSEKHLLDKPFYNDFERGAVDSYDVTVDEELGEIQLVRIEKRKYWLNDDWYLKYITLKTPHGDYIEFPCYRWITGDVEVVLRDGRAKLARDDQIHILKQHRRKELETRQKQYRWMEWNPGFPLSIDAKCHKDLPRDIQFDSEKGVDFVLNYSKAMENLFINRFMHMFQSSWNDFADFEKIFVKISNTISERVMNHWQEDLMFGYQFLNGCNPVLIRRCTELPEKLPVTTEMVECSLERQLSLEQEVQQGNIFIVDFELLDGIDANKTDPCTLQFLAAPICLLYKNLANKIVPIAIQLNQIPGDENPIFLPSDAKYDWLLAKIWVRSSDFHVHQTITHLLRTHLVSEVFGIAMYRQLPAVHPIFKLLVAHVRFTIAINTKAREQLICECGLFDKANATGGGGHVQMVQRAMKDLTYASLCFPEAIKARGMESKEDIPYYFYRDDGLLVWEAIRTFTAEVVDIYYEGDQVVEEDPELQDFVNDVYVYGMRGRKSSGFPKSVKSREQLSEYLTVVIFTASAQHAAVNFGQYDWCSWIPNAPPTMRAPPPTAKGVVTIEQIVDTLPDRGRSCWHLGAVWALSQFQENELFLGMYPEEHFIEKPVKEAMARFRKNLEAIVSVIAERNKKKQLPYYYLSPDRIPNSVAI
partner: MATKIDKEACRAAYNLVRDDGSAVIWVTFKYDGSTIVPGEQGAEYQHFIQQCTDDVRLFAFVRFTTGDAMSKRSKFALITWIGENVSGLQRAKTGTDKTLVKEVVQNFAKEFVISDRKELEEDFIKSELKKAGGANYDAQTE

Variants of: B1
Settings: with cotl1_human COTL1, Q14019
With W14A;W76A;W103A the “effect of a mutation on the interaction” value was “disrupting interaction strength”.
